Measurements published in the supplement of paper PMC9112550, “Optimization of the antimicrobial peptide Bac7 by deep mutational scanning” (BMC Biology, 2022).

Tested on: Escherichia coli TOP10
Test: shrunken log2 fold change of peptide-encoding DNA abundance (4.5 h post-induction vs induction); higher = less antimicrobial activity (less host growth inhibition)
Conditions: time post-induction: 4.5 h; library: site-saturation at positions 5, 18, 19, 20
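Also: peptides expressed intracellularly from a pBAD plasmid library in pooled LB shake-flask culture, induced with 0.3% L-arabinose, DNA abundance read by NGS, three biological replicates, DESeq2 with apeglm shrinkage.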

RRIRSRPPRLPRPRPRPYDKPRP
shrunken log2 fold change: 0.0507

RRIRSRPPRLPRPRPRPYDMPRP
shrunken log2 fold change: -0.122

RRIRSRPPRLPRPRPRPYDVPRP
shrunken log2 fold change: 0.0192

RRIRSRPPRLPRPRPRPYFQPRP
shrunken log2 fold change: -0.951

RRIRSRPPRLPRPRPRPYGLPRP
shrunken log2 fold change: -0.0943

RRIRSRPPRLPRPRPRPYHCPRP
shrunken log2 fold change: -0.255

RRIRSRPPRLPRPRPRPYKQPRP
shrunken log2 fold change: -0.62

RRIRSRPPRLPRPRPRPYNAPRP
shrunken log2 fold change: -0.254

RRIRSRPPRLPRPRPRPYQMPRP
shrunken log2 fold change: -0.557

RRIRSRPPRLPRPRPRPYRSPRP
shrunken log2 fold change: -0.47

RRIRSRPPRLPRPRPRPYSEPRP
shrunken log2 fold change: -0.561

RRIRSRPPRLPRPRPRPYSHPRP
shrunken log2 fold change: -0.712

RRIRSRPPRLPRPRPRPYSLPRP
shrunken log2 fold change: -0.35

RRIRSRPPRLPRPRPRPYSSPRP
shrunken log2 fold change: -0.271

RRIRSRPPRLPRPRPRPYVAPRP
shrunken log2 fold change: -0.402

RRIRSRPPRLPRPRPRPYVKPRP
shrunken log2 fold change: -0.351

RRIRSRPPRLPRPRPRPYVMPRP
shrunken log2 fold change: -0.653

RRIRSRPPRLPRPRPRPYWTPRP
shrunken log2 fold change: -0.141

RRIRSRPPRLPRPRPRPYYKPRP
shrunken log2 fold change: -0.892

RRIRSRPPRLPRPRPRPYYLPRP
shrunken log2 fold change: -0.7

RRIRTRPPRLPRPRPRPACFPRP
shrunken log2 fold change: 0.252

RRIRTRPPRLPRPRPRPACHPRP
shrunken log2 fold change: 0.049

RRIRTRPPRLPRPRPRPACLPRP
shrunken log2 fold change: -0.217

RRIRTRPPRLPRPRPRPAEDPRP
shrunken log2 fold change: 0.17

RRIRTRPPRLPRPRPRPAFGPRP
shrunken log2 fold change: 0.155

RRIRTRPPRLPRPRPRPAGEPRP
shrunken log2 fold change: 0.323

RRIRTRPPRLPRPRPRPAHEPRP
shrunken log2 fold change: 0.197

RRIRTRPPRLPRPRPRPAKNPRP
shrunken log2 fold change: -0.0492

RRIRTRPPRLPRPRPRPALIPRP
shrunken log2 fold change: 0.0272

RRIRTRPPRLPRPRPRPAMRPRP
shrunken log2 fold change: 0.445

RRIRTRPPRLPRPRPRPAMVPRP
shrunken log2 fold change: -0.208

RRIRTRPPRLPRPRPRPANFPRP
shrunken log2 fold change: -0.234

RRIRTRPPRLPRPRPRPAPFPRP
shrunken log2 fold change: 0.0263

RRIRTRPPRLPRPRPRPAPNPRP
shrunken log2 fold change: 0.0436

RRIRTRPPRLPRPRPRPARNPRP
shrunken log2 fold change: 0.199

RRIRTRPPRLPRPRPRPARRPRP
shrunken log2 fold change: 0.204

RRIRTRPPRLPRPRPRPASEPRP
shrunken log2 fold change: -0.0873

RRIRTRPPRLPRPRPRPASIPRP
shrunken log2 fold change: -0.13

RRIRTRPPRLPRPRPRPATCPRP
shrunken log2 fold change: 2.77

RRIRTRPPRLPRPRPRPATEPRP
shrunken log2 fold change: -0.0814

RRIRTRPPRLPRPRPRPATWPRP
shrunken log2 fold change: 0.164

RRIRTRPPRLPRPRPRPCCTPRP
shrunken log2 fold change: -0.0782

RRIRTRPPRLPRPRPRPCDGPRP
shrunken log2 fold change: 0.134

RRIRTRPPRLPRPRPRPCEKPRP
shrunken log2 fold change: -0.0336

RRIRTRPPRLPRPRPRPCFAPRP
shrunken log2 fold change: 0.083

RRIRTRPPRLPRPRPRPCFHPRP
shrunken log2 fold change: -0.638

RRIRTRPPRLPRPRPRPCGAPRP
shrunken log2 fold change: 0.0999

RRIRTRPPRLPRPRPRPCHFPRP
shrunken log2 fold change: -0.387

RRIRTRPPRLPRPRPRPCIKPRP
shrunken log2 fold change: -0.476

RRIRTRPPRLPRPRPRPCIRPRP
shrunken log2 fold change: -0.0289

RRIRTRPPRLPRPRPRPCISPRP
shrunken log2 fold change: -0.503

RRIRTRPPRLPRPRPRPCIYPRP
shrunken log2 fold change: -0.264

RRIRTRPPRLPRPRPRPCMIPRP
shrunken log2 fold change: -0.546

RRIRTRPPRLPRPRPRPCQKPRP
shrunken log2 fold change: 0.0124

RRIRTRPPRLPRPRPRPCQLPRP
shrunken log2 fold change: -0.161

RRIRTRPPRLPRPRPRPCRLPRP
shrunken log2 fold change: 0.0337

RRIRTRPPRLPRPRPRPCRWPRP
shrunken log2 fold change: -0.00822

RRIRTRPPRLPRPRPRPCSHPRP
shrunken log2 fold change: 0.13

RRIRTRPPRLPRPRPRPCSRPRP
shrunken log2 fold change: -0.182

RRIRTRPPRLPRPRPRPCWRPRP
shrunken log2 fold change: 0.156

RRIRTRPPRLPRPRPRPCWSPRP
shrunken log2 fold change: 0.499

RRIRTRPPRLPRPRPRPDAKPRP
shrunken log2 fold change: 0.395

RRIRTRPPRLPRPRPRPDAQPRP
shrunken log2 fold change: 0.193

RRIRTRPPRLPRPRPRPDAVPRP
shrunken log2 fold change: 0.171

RRIRTRPPRLPRPRPRPDCTPRP
shrunken log2 fold change: 0.0818

RRIRTRPPRLPRPRPRPDCYPRP
shrunken log2 fold change: -0.000691

RRIRTRPPRLPRPRPRPDEKPRP
shrunken log2 fold change: 0.0325

RRIRTRPPRLPRPRPRPDFVPRP
shrunken log2 fold change: -0.106

RRIRTRPPRLPRPRPRPDGSPRP
shrunken log2 fold change: 0.0485

RRIRTRPPRLPRPRPRPDHGPRP
shrunken log2 fold change: -0.0102

RRIRTRPPRLPRPRPRPDHNPRP
shrunken log2 fold change: -0.471

RRIRTRPPRLPRPRPRPDHRPRP
shrunken log2 fold change: 0.0733

RRIRTRPPRLPRPRPRPDHTPRP
shrunken log2 fold change: -0.145

RRIRTRPPRLPRPRPRPDIIPRP
shrunken log2 fold change: -0.232

RRIRTRPPRLPRPRPRPDKCPRP
shrunken log2 fold change: -0.229

RRIRTRPPRLPRPRPRPDKIPRP
shrunken log2 fold change: -0.172

RRIRTRPPRLPRPRPRPDKMPRP
shrunken log2 fold change: -0.392

RRIRTRPPRLPRPRPRPDKQPRP
shrunken log2 fold change: 0.0419

RRIRTRPPRLPRPRPRPDKYPRP
shrunken log2 fold change: -0.147

RRIRTRPPRLPRPRPRPDLRPRP
shrunken log2 fold change: -0.0122

RRIRTRPPRLPRPRPRPDMEPRP
shrunken log2 fold change: -0.132

RRIRTRPPRLPRPRPRPDNAPRP
shrunken log2 fold change: -0.223

RRIRTRPPRLPRPRPRPDNEPRP
shrunken log2 fold change: -0.248

RRIRTRPPRLPRPRPRPDNHPRP
shrunken log2 fold change: -1.07

RRIRTRPPRLPRPRPRPDNSPRP
shrunken log2 fold change: -0.0647

RRIRTRPPRLPRPRPRPDPHPRP
shrunken log2 fold change: -0.00783

RRIRTRPPRLPRPRPRPDPPPRP
shrunken log2 fold change: 0.517

RRIRTRPPRLPRPRPRPDQPPRP
shrunken log2 fold change: 0.00486

RRIRTRPPRLPRPRPRPDQWPRP
shrunken log2 fold change: -0.00805

RRIRTRPPRLPRPRPRPDRQPRP
shrunken log2 fold change: -0.0344

RRIRTRPPRLPRPRPRPDTIPRP
shrunken log2 fold change: -0.0386

RRIRTRPPRLPRPRPRPDTLPRP
shrunken log2 fold change: 0.00154

RRIRTRPPRLPRPRPRPDTNPRP
shrunken log2 fold change: -0.558

RRIRTRPPRLPRPRPRPDVDPRP
shrunken log2 fold change: -0.0342

RRIRTRPPRLPRPRPRPDVLPRP
shrunken log2 fold change: -0.208

RRIRTRPPRLPRPRPRPDVVPRP
shrunken log2 fold change: -0.106

RRIRTRPPRLPRPRPRPDYGPRP
shrunken log2 fold change: 0.00355

RRIRTRPPRLPRPRPRPDYSPRP
shrunken log2 fold change: -0.0445

RRIRTRPPRLPRPRPRPECIPRP
shrunken log2 fold change: 0.0878

RRIRTRPPRLPRPRPRPEDHPRP
shrunken log2 fold change: -0.0554

RRIRTRPPRLPRPRPRPEEDPRP
shrunken log2 fold change: -0.00174

RRIRTRPPRLPRPRPRPEFEPRP
shrunken log2 fold change: 0.0862

RRIRTRPPRLPRPRPRPEFNPRP
shrunken log2 fold change: 0.085

RRIRTRPPRLPRPRPRPEGRPRP
shrunken log2 fold change: 0.1

RRIRTRPPRLPRPRPRPEHIPRP
shrunken log2 fold change: -0.223

RRIRTRPPRLPRPRPRPEHSPRP
shrunken log2 fold change: -0.237

RRIRTRPPRLPRPRPRPEIIPRP
shrunken log2 fold change: 0.095

RRIRTRPPRLPRPRPRPEKCPRP
shrunken log2 fold change: 0.0324

RRIRTRPPRLPRPRPRPEKGPRP
shrunken log2 fold change: -0.0355

RRIRTRPPRLPRPRPRPEMHPRP
shrunken log2 fold change: -0.149

RRIRTRPPRLPRPRPRPEMLPRP
shrunken log2 fold change: 0.0362

RRIRTRPPRLPRPRPRPEPDPRP
shrunken log2 fold change: 0.286

RRIRTRPPRLPRPRPRPEPSPRP
shrunken log2 fold change: 0.534

RRIRTRPPRLPRPRPRPEPYPRP
shrunken log2 fold change: 0.0261

RRIRTRPPRLPRPRPRPEQKPRP
shrunken log2 fold change: 0.154

RRIRTRPPRLPRPRPRPEQTPRP
shrunken log2 fold change: 0.303

RRIRTRPPRLPRPRPRPERLPRP
shrunken log2 fold change: -0.0511

RRIRTRPPRLPRPRPRPERYPRP
shrunken log2 fold change: 0.0845

RRIRTRPPRLPRPRPRPESRPRP
shrunken log2 fold change: -0.0705

RRIRTRPPRLPRPRPRPESSPRP
shrunken log2 fold change: -0.0341

RRIRTRPPRLPRPRPRPETKPRP
shrunken log2 fold change: 0.00321

RRIRTRPPRLPRPRPRPETRPRP
shrunken log2 fold change: -0.0794

RRIRTRPPRLPRPRPRPEWGPRP
shrunken log2 fold change: 0.249

RRIRTRPPRLPRPRPRPEWLPRP
shrunken log2 fold change: 0.203

RRIRTRPPRLPRPRPRPEWPPRP
shrunken log2 fold change: 0.351

RRIRTRPPRLPRPRPRPFASPRP
shrunken log2 fold change: -0.00185

RRIRTRPPRLPRPRPRPFATPRP
shrunken log2 fold change: 0.101

RRIRTRPPRLPRPRPRPFCEPRP
shrunken log2 fold change: -0.0463

RRIRTRPPRLPRPRPRPFCSPRP
shrunken log2 fold change: 0.207

RRIRTRPPRLPRPRPRPFDEPRP
shrunken log2 fold change: -0.206

RRIRTRPPRLPRPRPRPFETPRP
shrunken log2 fold change: -0.117

RRIRTRPPRLPRPRPRPFFCPRP
shrunken log2 fold change: -0.0401

RRIRTRPPRLPRPRPRPFFYPRP
shrunken log2 fold change: -0.345

RRIRTRPPRLPRPRPRPFGEPRP
shrunken log2 fold change: -0.101

RRIRTRPPRLPRPRPRPFHQPRP
shrunken log2 fold change: -0.126

RRIRTRPPRLPRPRPRPFHRPRP
shrunken log2 fold change: -0.469

RRIRTRPPRLPRPRPRPFIEPRP
shrunken log2 fold change: -0.553

RRIRTRPPRLPRPRPRPFIQPRP
shrunken log2 fold change: -0.312

RRIRTRPPRLPRPRPRPFMPPRP
shrunken log2 fold change: -0.618

RRIRTRPPRLPRPRPRPFMRPRP
shrunken log2 fold change: -0.0135

RRIRTRPPRLPRPRPRPFMYPRP
shrunken log2 fold change: -0.576

RRIRTRPPRLPRPRPRPFNGPRP
shrunken log2 fold change: -0.142

RRIRTRPPRLPRPRPRPFNMPRP
shrunken log2 fold change: -0.692

RRIRTRPPRLPRPRPRPFQMPRP
shrunken log2 fold change: -0.135

RRIRTRPPRLPRPRPRPFRAPRP
shrunken log2 fold change: -0.597

RRIRTRPPRLPRPRPRPFRTPRP
shrunken log2 fold change: -0.146

RRIRTRPPRLPRPRPRPFSLPRP
shrunken log2 fold change: -0.0845

RRIRTRPPRLPRPRPRPFTAPRP
shrunken log2 fold change: -0.473

RRIRTRPPRLPRPRPRPFVDPRP
shrunken log2 fold change: -0.0538

RRIRTRPPRLPRPRPRPFWDPRP
shrunken log2 fold change: 0.126
